* marks the point of attachment. 5FAM = O=C1OC2(c3ccc(O)cc3Oc3cc(O)ccc32)c2ccc(C(=O)*)cc21; Ahx = NCCCCCC(=O)O

This test addresses T1, N-terminal His-tag PCNA (recombinant (His)6-PCNA fusion protein; Proliferating Cell Nuclear Antigen) (Homo sapiens (Human), UniProt P12004 1-261).
T1 construct: Expressed in E. coli BL21 (DE3) from vector pEV-L8, which carries an N-terminal His-tag and a TEV protease site; No tag cleavage is described; also called His-tagged PCNA; recombinant PCNA
Description: fluorescence polarization; fixed FAM-PL (5 nM) titrated with two-fold increasing recombinant His-tagged PCNA. From the text:
[a]N-substituted side chains listed from N-terminus to most C-terminal [b]as determined by high resolution electrospray ionization or MALDI-TOF [c]based on dry mass recovery after HPLC purification After synthesis and purification, peptoids were screened in a fluorescence polarization (FP) assay to find ligands that disrupted the interaction between His-tagged PCNA and fluorescein-labeled Pogo Ligase peptide (FAM-PL) (Kontopidis, G., et al. Proc. Natl. Acad. Sci. U.S.A. 2005, 102 (6), 1871-1876). In the design of the assay, conditions were adopted from Pedley et al., 2016, to improve the dynamic range between bound and unbound FAM-PL. While an acceptable Z-score was determined using the original 10 nM peptide and 100 nM PCNA (FIG. 4), an improved dynamic range was established by adjusting the ligand and receptor concentrations. […]
Increasing amounts of recombinant (His)_6-PCNA protein (SEQ ID NO: 3) were prepared in FP binding buffer (25 mM HEPES at pH 7.4, 10% glycerol, 0.01% Triton X-100), with an 11-step 2-fold dilution series, and a top concentration of 30 μM. […] Fluorescence polarization and resultant anisotropy were measured on a BioTek Synergy 4 Multi-Detection Microplate Reader using an excitation filter of 485 nm and an emission filter of 530 nm, each with a 20 nm band-pass.
On the technique in general: Fluorescence polarisation rises when a labelled molecule tumbles more slowly, as on binding a larger partner.

T1 sequence (P12004 other isoform, or with tags, fused parts or gaps limits assumed): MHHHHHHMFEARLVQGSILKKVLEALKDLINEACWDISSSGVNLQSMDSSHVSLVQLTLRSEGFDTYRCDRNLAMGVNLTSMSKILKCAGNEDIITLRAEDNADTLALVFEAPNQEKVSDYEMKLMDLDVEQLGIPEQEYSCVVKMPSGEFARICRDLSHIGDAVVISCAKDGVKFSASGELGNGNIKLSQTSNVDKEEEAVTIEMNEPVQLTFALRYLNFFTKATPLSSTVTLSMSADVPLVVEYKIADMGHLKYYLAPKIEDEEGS

B1: 5-FAM-labeled POGO ligase peptide (FAM-PL) (peptide)
peptide: {5FAM-Ahx}-SAVLQKKITDYFHPKK-NH2
notes: also called fluorescein-labeled Pogo Ligase peptide; PL peptide
Usually Kd stands for the equilibrium constant for the complex coming apart. Turning to B1, the equilibrium dissociation constant (Kd) came to 107 nM.

The record behind these values is US10758588 (PURDUE RESEARCH FOUNDATION, dated 2020).
